# Source: patent US20230192768A1 (published 2023)
# Where no end group is shown, it is not given here.
# B1: peptide 632 (peptide)
# peptide: HYIDFRW
# modifications: also: FITC label, place not given here
# notes: Chemically synthesized peptide; It was used in the ELISA as the FITC-labeled peptide; also called TNF-α antagonist peptide; antagonist peptide
# Biological target: tumor necrosis factor alpha (TNF-α) protein
# Assay: ELISA: plate coated with 2 µg/ml TNF-α, FITC-labeled peptide titrated, HRP anti-FITC antibody, OD 410 nm, fitted in GraphPad Prism 5
# Sequence of tumor necrosis factor alpha (TNF-α) protein (chain, as listed by the source): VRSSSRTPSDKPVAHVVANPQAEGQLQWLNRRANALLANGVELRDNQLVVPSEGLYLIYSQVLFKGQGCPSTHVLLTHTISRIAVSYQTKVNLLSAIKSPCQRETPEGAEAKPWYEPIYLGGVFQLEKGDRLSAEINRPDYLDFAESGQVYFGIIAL
binder,measurement,value
B1,Kd,138 nM
